Series [1] deals with HeLa Kyoto. The series is described as follows: thermal stability score vs G1/S (z-score of summed log2 fold changes over temperatures); higher = more thermally stable than in G1/S.
In series [2] the test system is HeLa Kyoto. The series is described as follows: melting temperature (median over replicates), in situ; higher = more thermally stable.
Series [3] has as its system HeLa Kyoto. The series is described as follows: solubility change mitosis vs G1/S (difference of NP-40 vs SDS log2 ratios) (log2 ratio difference); higher = more soluble in mitosis.
For series [4], the system named is HeLa Kyoto. The series is described as follows: solubility in G1/S (NP-40 vs SDS abundance) (log2 ratio); higher = more soluble. As to conditions: cell cycle stage: G1/S.
Where [5] appears, read: cell cycle stage: early G1 (4.5 h after nocodazole release).
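Throughout, for melting temperature (median over replicates), in situ: HeLa Kyoto cells synchronized by double thymidine or nocodazole block, proteins quantified by TMT10plex mass spectrometry, three independent biological replicates.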
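Throughout, for solubility change mitosis vs G1/S (difference of NP-40 vs SDS log2 ratios): synchronized HeLa Kyoto cells (double thymidine block for G1/S, nocodazole release for mitosis), protein amounts in NP-40 versus SDS lysates quantified by mass spectrometry, three biological replicates.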
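Throughout, for solubility in G1/S (NP-40 vs SDS abundance): HeLa Kyoto cells arrested at G1/S by double thymidine block, proteins quantified by TMT10plex mass spectrometry in mild NP-40 versus SDS extracts, three biological replicates.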
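Throughout, for thermal stability score vs G1/S (z-score of summed log2 fold changes over temperatures): synchronized HeLa Kyoto cells, proteins quantified by TMT10plex mass spectrometry, three biological replicates, mitosis taken 0.5 h after nocodazole release, G1/S directly after double thymidine block.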

In the case of “MEVSGPEDDPFLSQLHQVQCPVCQQMMPAAHINSHLDRCLLLHPAGHAEPAAGSHRAGERAKGPSPPGAKRRRLSESSALKQPATPTAAESSEGEGEEGDDGGETESRESYDAPPTPSGARLIPDFPVARSSSPGRKGSGKRPAAAAAAGSASPRSWDEAEAQEEEEAVGDGDGDGDADADGEDDPGHWDADAAEAATAFGASGGGRPHPRALAAEEIRQMLQGKPLADTMRPDTLQDYFGQSKAVGQDTLLRSLLETNEIPSLILWGPPGCGKTTLAHIIASNSKKHSIRFVTLSATNAKTNDVRDVIKQAQNEKSFFKRKTILFIDEIHRFNKSQQDTFLPHVECGTITLIGATTENPSFQVNAALLSRCRVIVLEKLPVEAMVTILMRAINSLGIHVLDSSRPTDPLSHSSNSSSEPAMFIEDKAVDTLAYLSDGDARAGLNGLQLAVLARLSSRKMFCKKSGQSYSPSRVLITENDVKEGLQRSHILYDRAGEEHYNCISALHKSMRGSDQNASLYWLARMLEGGEDPLYVARRLVRFASEDIGLADPSALTQAVAAYQGCHFIGMPECEVLLAQCVVYFARAPKSIEVYSAYNNVKACLRNHQGPLPPVPLHLRNAPTRLMKDLGYGKGYKYNPMYSEPVDQEYLPEELRGVDFFKQRRC [WRNIP1]”, the thermal stability score came out at 2.61 in series [1] (setting [5]) and 5.06 in series [1] (cell cycle stage: mitosis). Besides, the melting temperature in series [2] (cell cycle stage: G1/S) stood at 47.5 °C; in series [2] (cell cycle stage: mitosis), 49.3 °C. Besides, the “solubility change mitosis (log2)” value in series [3] was -0.0694. Moreover, the “solubility in G1/S (log2)” value in series [4] was 0.228.
For “MFCVTPPELETKMNITKGGLVLFSANSNSSCMELSKKIAERLGVEMGKVQVYQEPNRETRVQIQESVRGKDVFIIQTVSKDVNTTIMELLIMVYACKTSCAKSIIGVIPYFPYSKQCKMRKRGSIVSKLLASMMCKAGLTHLITMDLHQKEIQGFFNIPVDNLRASPFLLQYIQEEIPDYRNAVIVAKSPASAKRAQSFAERLRLGIAVIHGEAQDAESDLVDGRHSPPMVRSVAAIHPSLEIPMLIPKEKPPITVVGDVGGRIAIIVDDIIDDVDSFLAAAETLKERGAYKIFVMATHGLLSSDAPRRIEESAIDEVVVTNTIPHEVQKLQCPKIKTVDISMILSEAIRRIHNGESMSYLFRNIGLDD [PRPSAP2]”, the thermal stability score in series [1] (setting [5]) is -0.303; in series [1] (cell cycle stage: mitosis), -0.671. In addition, the melting temperature is 57.5 °C in series [2] (cell cycle stage: G1/S) and 57.4 °C in series [2] (cell cycle stage: mitosis). The “solubility change mitosis (log2)” value in series [3] was -0.121. Further, in series [4], the “solubility in G1/S (log2)” value was 0.117.
Regarding “MFEEKASSPSGKMGGEEKPIGAGEEKQKEGGKKKNKEGSGDGGRAELNPWPEYIYTRLEMYNILKAEHDSILAEKAEKDSKPIKVTLPDGKQVDAESWKTTPYQIACGISQGLADNTVIAKVNNVVWDLDRPLEEDCTLELLKFEDEEAQAVYWHSSAHIMGEAMERVYGGCLCYGPPIENGFYYDMYLEEGGVSSNDFSSLEALCKKIIKEKQAFERLEVKKETLLAMFKYNKFKCRILNEKVNTPTTTVYRCGPLIDLCRGPHVRHTGKIKALKIHKNSSTYWEGKADMETLQRIYGISFPDPKMLKEWEKFQEEAKNRDHRKIGRDQELYFFHELSPGSCFFLPKGAYIYNALIEFIRSEYRKRGFQEVVTPNIFNSRLWMTSGHWQHYSENMFSFEVEKELFALKPMNCPGHCLMFDHRPRSWRELPLRLADFGVLHRNELSGALTGLTRVRRFQQDDAHIFCAMEQIEDEIKGCLDFLRTVYSVFGFSFKLNLSTRPEKFLGDIEVWDQAEKQLENSLNEFGEKWELNSGDGAFYGPKIDIQIKDAIGRYHQCATIQLDFQLPIRFNLTYVSHDGDDKKRPVIVHRAILGSVERMIAILTENYGGKWPFWLSPRQVMVVPVGPTCDEYAQKVRQQFHDAKFMADIDLDPGCTLNKKIRNAQLAQYNFILVVGEKEKISGTVNIRTRDNKVHGERTISETIERLQQLKEFRSKQAEEEF [TARS]”, the thermal stability score in series [1] (setting [5]) is 0.00611; in series [1] (cell cycle stage: mitosis), -0.985. Moreover, the melting temperature in series [2] (cell cycle stage: G1/S) was 51.9 °C; in series [2] (cell cycle stage: mitosis), 51.6 °C. Further, the “solubility change mitosis (log2)” value in series [3] is -0.144. Moreover, in series [4], the “solubility in G1/S (log2)” value is -0.0551.
On to “MFGKRKKRVEISAPSNFEHRVHTGFDQHEQKFTGLPRQWQSLIEESARRPKPLVDPACITSIQPGAPKTIVRGSKGAKDGALTLLLDEFENMSVTRSNSLRRDSPPPPARARQENGMPEEPATTARGGPGKAGSRGRFAGHSEAGGGSGDRRRAGPEKRPKSSREGSGGPQESSRDKRPLSGPDVGTPQPAGLASGAKLAAGRPFNTYPRADTDHPSRGAQGEPHDVAPNGPSAGGLAIPQSSSSSSRPPTRARGAPSPGVLGPHASEPQLAPPACTPAAPAVPGPPGPRSPQREPQRVSHEQFRAALQLVVDPGDPRSYLDNFIKIGEGSTGIVCIATVRSSGKLVAVKKMDLRKQQRRELLFNEVVIMRDYQHENVVEMYNSYLVGDELWVVMEFLEGGALTDIVTHTRMNEEQIAAVCLAVLQALSVLHAQGVIHRDIKSDSILLTHDGRVKLSDFGFCAQVSKEVPRRKSLVGTPYWMAPELISRLPYGPEVDIWSLGIMVIEMVDGEPPYFNEPPLKAMKMIRDNLPPRLKNLHKVSPSLKGFLDRLLVRDPAQRATAAELLKHPFLAKAGPPASIVPLMRQNRTR [PAK4]”, for which the thermal stability score worked out at 0.186 in series [1] (setting [5]) and 0.111 in series [1] (cell cycle stage: mitosis). For the same sequence, the results for the melting temperature in series [2] (cell cycle stage: G1/S) and in series [2] (cell cycle stage: mitosis) were 51.3 °C and 50.5 °C, respectively. Moreover, the “solubility change mitosis (log2)” value in series [3] was -0.000436. Moreover, the “solubility in G1/S (log2)” value in series [4] amounted to 0.0713.
With “MFKKFDEKENVSNCIQLKTSVIKGIKNQLIEQFPGIEPWLNQIMPKKDPVKIVRCHEHIEILTVNGELLFFRQREGPFYPTLRLLHKYPFILPHQQVDKGAIKFVLSGANIMCPGLTSPGAKLYPAAVDTIVAIMAEGKQHALCVGVMKMSAEDIEKVNKGIGIENIHYLNDGLWHMKTYK [MCTS1]”, the results for the thermal stability score in series [1] (setting [5]) and in series [1] (cell cycle stage: mitosis) were -1.29 and -1.6, respectively. For the same sequence, the melting temperature in series [2] (cell cycle stage: G1/S) is 54.8 °C; in series [2] (cell cycle stage: mitosis), 54.5 °C. The “solubility change mitosis (log2)” value in series [3] is -0.0597. For the same sequence, in series [4], the “solubility in G1/S (log2)” value came to 0.267.
In the case of “MFLVGLTGGIASGKSSVIQVFQQLGCAVIDVDVMARHVVQPGYPAHRRIVEVFGTEVLLENGDINRKVLGDLIFNQPDRRQLLNAITHPEIRKEMMKETFKYFLRGYRYVILDIPLLFETKKLLKYMKHTVVVYCDRDTQLARLMRRNSLNRKDAEARINAQLPLTDKARMARHVLDNSGEWSVTKRQVILLHTELERSLEYLPLRFGVLTGLAAIASLLYLLTHYLLPYA [DCAKD]”, the thermal stability score in series [1] (setting [5]) was -0.154; in series [1] (cell cycle stage: mitosis) it was 0.0944. Besides, the melting temperature is 51.7 °C in series [2] (cell cycle stage: G1/S) and 50.9 °C in series [2] (cell cycle stage: mitosis). The “solubility change mitosis (log2)” value in series [3] is -0.182. Further, in series [4], the “solubility in G1/S (log2)” value was -0.0828.
Regarding “MFRAAAPGQLRRAASLLRFQSTLVIAEHANDSLAPITLNTITAATRLGGEVSCLVAGTKCDKVAQDLCKVAGIAKVLVAQHDVYKGLLPEELTPLILATQKQFNYTHICAGASAFGKNLLPRVAAKLEVAPISDIIAIKSPDTFVRTIYAGNALCTVKCDEKVKVFSVRGTSFDAAATSGGSASSEKASSTSPVEISEWLDQKLTKSDRPELTGAKVVVSGGRGLKSGENFKLLYDLADQLHAAVGASRAAVDAGFVPNDMQVGQTGKIVAPELYIAVGISGAIQHLAGMKDSKTIVAINKDPEAPIFQVADYGIVADLFKVVPEMTEILKKK [ETFA]”, the thermal stability score in series [1] (setting [5]) was -3.45; in series [1] (cell cycle stage: mitosis) it was -1.76. For the same sequence, the values for the melting temperature in series [2] (cell cycle stage: G1/S) and in series [2] (cell cycle stage: mitosis) were 54.1 °C and 53.6 °C, respectively. The “solubility change mitosis (log2)” value in series [3] was -0.02. Moreover, the “solubility in G1/S (log2)” value in series [4] stood at 0.455.
For the sequence “MFRRKLTALDYHNPAGFNCKDETEFRNFIVWLEDQKIRHYKIEDRGNLRNIHSSDWPKFFEKYLRDVNCPFKIQDRQEAIDWLLGLAVRLEYGDNAEKYKDLVPDNSKTADNATKNAEPLINLDVNNPDFKAGVMALANLLQIQRHDDYLVMLKAIRILVQERLTQDAVAKANQTKEGLPVALDKHILGFDTGDAVLNEAAQILRLLHIEELRELQTKINEAIVAVQAIIADPKTDHRLGKVGR [C14ORF166]”, the thermal stability score in series [1] (setting [5]) was -1.08; in series [1] (cell cycle stage: mitosis), -0.0878. Also, the melting temperature in series [2] (cell cycle stage: G1/S) worked out at 50.1 °C; in series [2] (cell cycle stage: mitosis), 51.3 °C. For the same sequence, in series [3], the “solubility change mitosis (log2)” value came to 0.329. Besides, in series [4], the “solubility in G1/S (log2)” value is 0.0935.
As for “MFRYESLEDCPLDEDEDAFQGLGEEDEEIDQFNDDTFGSGAVDDDWQEAHERLAELEEKLPVAVNEQTGNGERDEMDLLGDHEENLAERLSKMVIENELEDPAIMRAVQTRPVLQPQPGSLNSSIWDGSEVLRRIRGPLLAQEMPTVSVLEYALPQRPPQGPEDDRDLSERALPRRSTSPIIGSPPVRAVPIGTPPKQMAVPSFTQQILCPKPVHVRPPMPPRYPAPYGERMSPNQLCSVPNSSLLGHPFPPSVPPVLSPLQRAQLLGGAQLQPGRMSPSQFARVPGFVGSPLAAMNPKLLQGRVGQMLPPAPGFRAFFSAPPSATPPPQQHPPGPGPHLQNLRSQAPMFRPDTTHLHPQHRRLLHQRQQQNRSQHRNLNGAGDRGSHRSSHQDHLRKDPYANLMLQREKDWVSKIQMMQLQSTDPYLDDFYYQNYFEKLEKLSAAEEIQGDGPKKERTKLITPQVAKLEHAYKPVQFEGSLGKLTVSSVNNPRKMIDAVVTSRSEDDETKEKQVRDKRRKTLVIIEKTYSLLLDVEDYERRYLLSLEEERPALMDDRKHKICSMYDNLRGKLPGQERPSDDHFVQIMCIRKGKRMVARILPFLSTEQAADILMTTARNLPFLIKKDAQDEVLPCLLSPFSLLLYHLPSVSITSLLRQLMNLPQSAATPALSNPHLTAVLQNKFGLSLLLILLSRGEDLQSSDPATESTQNNQWTEVMFMATRELLRIPQAALAKPISIPTNLVSLFSRYVDRQKLNLLETKLQLVQGIR [PATL1]”, the thermal stability score in series [1] (setting [5]) was -0.863; in series [1] (cell cycle stage: mitosis), 0.327. Further, the melting temperature is 49.2 °C in series [2] (cell cycle stage: G1/S) and 48.5 °C in series [2] (cell cycle stage: mitosis). The “solubility change mitosis (log2)” value in series [3] is -0.0674. For the same sequence, in series [4], the “solubility in G1/S (log2)” value was 0.255.

The values are drawn from the supplement of paper PMC5998384.
